For this assay, the target named is 4xSH3lig::Cas12a (SEQ ID NO: 187). As to the kind of experiment: cell-based or functional assay.

B1: VirD2::SH3dom (SEQ ID NO: 186) (other)
chain: MPDRAQVIIRIVPGGGTKTLQQIINQLEYLSRKGRLELQRSARHLDIPLPPDQIHELARSWVQETGTYDESQPDEERQQELTTHIIVSFPAGTSQVAAYAASREWAAEMFGSGAGGGRYNYLTAFHIDRDHPHLHVVVNRRELLGHGWLKISRRHPQLNYDALRIKMAEISLRHGIALDASRRAERGITERPITYAQYRRLEREQARQIRFEDADLEQSSPQGDHPEFSQPFDTSPFEASAGGPEDMPRPNNRQNESQVHLQEPAGVSNEAGVLVRVALETERLAQPFVSETILADDIGSGSSRVAEGRVESANRTPDIPRAATEAATHTTHDRQRRAKRPHDDDGGPSGAKRVTLEGIAVGPQANAGEQDGSSGGSSGGSMSGSKKRRIKQDAEYVRALFDFNGNDEEDLPFKKGDILRIRDKPEEQWWNAEDSEGKRGMIPVPYVEKYSGSGGSSGGSSGPLVRQAGTSRPSPPTATTRASTATDSLSATAHLQQRRGVLSKRPREDDDGEPSERKRERDERSKDGRGGNRR
B1: the “increase of green shoots over the negative control, EF1α site” value is roughly 3 fold and the “increase of green shoots over the negative control, polyubiquitin site” value is roughly 2 fold.

The values above are taken from patent US20210171947A1 (PAIRWISE PLANTS SERVICES, published 2021).
